This assay deals with T1, integrin αVβ5 (Homo sapiens, UniProt P06756).
T1 chain 1: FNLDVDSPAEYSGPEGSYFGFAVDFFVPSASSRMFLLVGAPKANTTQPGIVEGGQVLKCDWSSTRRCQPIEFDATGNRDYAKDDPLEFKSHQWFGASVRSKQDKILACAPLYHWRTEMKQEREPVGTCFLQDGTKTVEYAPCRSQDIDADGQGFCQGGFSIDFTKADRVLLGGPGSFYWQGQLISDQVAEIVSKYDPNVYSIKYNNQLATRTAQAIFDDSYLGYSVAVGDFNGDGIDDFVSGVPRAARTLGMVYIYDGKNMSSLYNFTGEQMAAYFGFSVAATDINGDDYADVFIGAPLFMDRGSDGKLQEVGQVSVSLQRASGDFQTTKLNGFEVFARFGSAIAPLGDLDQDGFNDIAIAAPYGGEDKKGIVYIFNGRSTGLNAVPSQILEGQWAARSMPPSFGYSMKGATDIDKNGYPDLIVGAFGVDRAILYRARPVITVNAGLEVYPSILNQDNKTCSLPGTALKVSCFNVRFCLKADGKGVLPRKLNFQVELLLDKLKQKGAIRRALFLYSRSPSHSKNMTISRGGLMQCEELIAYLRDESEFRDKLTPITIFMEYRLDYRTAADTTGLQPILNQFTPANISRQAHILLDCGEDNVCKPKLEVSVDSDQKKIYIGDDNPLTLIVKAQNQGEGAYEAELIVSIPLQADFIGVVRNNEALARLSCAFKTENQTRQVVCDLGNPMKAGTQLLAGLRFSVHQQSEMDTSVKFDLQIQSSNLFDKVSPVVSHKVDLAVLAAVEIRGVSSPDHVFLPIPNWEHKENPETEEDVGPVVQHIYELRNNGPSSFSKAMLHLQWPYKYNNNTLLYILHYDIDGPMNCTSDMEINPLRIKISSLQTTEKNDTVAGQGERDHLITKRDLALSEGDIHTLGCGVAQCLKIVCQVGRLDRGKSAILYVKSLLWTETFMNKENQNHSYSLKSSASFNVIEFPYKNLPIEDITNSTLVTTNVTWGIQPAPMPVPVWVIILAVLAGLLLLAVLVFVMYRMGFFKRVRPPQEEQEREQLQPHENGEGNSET
T1 chain 2: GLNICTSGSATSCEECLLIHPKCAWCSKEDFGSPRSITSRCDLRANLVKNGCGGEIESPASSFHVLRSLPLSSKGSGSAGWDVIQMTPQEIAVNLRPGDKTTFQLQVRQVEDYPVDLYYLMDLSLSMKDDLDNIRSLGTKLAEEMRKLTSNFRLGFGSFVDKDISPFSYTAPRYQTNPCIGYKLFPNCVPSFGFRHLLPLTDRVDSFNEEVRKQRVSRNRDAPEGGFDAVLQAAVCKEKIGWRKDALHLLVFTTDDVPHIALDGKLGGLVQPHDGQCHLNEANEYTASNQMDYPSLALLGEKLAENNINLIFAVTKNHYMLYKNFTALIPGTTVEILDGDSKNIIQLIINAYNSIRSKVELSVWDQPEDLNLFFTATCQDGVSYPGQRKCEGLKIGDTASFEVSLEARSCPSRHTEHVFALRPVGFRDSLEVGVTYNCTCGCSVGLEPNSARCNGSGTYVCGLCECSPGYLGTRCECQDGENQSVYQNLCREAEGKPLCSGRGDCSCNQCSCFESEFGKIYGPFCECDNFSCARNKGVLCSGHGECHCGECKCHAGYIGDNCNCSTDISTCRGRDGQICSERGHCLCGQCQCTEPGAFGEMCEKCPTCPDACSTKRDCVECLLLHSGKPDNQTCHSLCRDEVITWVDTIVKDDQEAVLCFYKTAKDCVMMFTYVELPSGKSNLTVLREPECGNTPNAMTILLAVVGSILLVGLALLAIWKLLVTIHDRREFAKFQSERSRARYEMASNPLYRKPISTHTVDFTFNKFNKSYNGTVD
The assay can be described thus: solid-phase binding assay (fluorescent immunoassay).

The Kd is the equilibrium constant for the complex coming apart.

B1: PilY1 532-1163 (protein)
chain: AGDLTRYSLTTQDKATVQTKLWSAQSILDAMPNGGAGRKIMMAGSGTSGLKEFTWGSLSADQQRQLNRDPDRNDVADTKGQDRVAFLRGDRSKENSDNFRTRNSILGDIINSSPATVGKAQYLTYLAQPIEPSGNYSTFAEAQKTRAPRVYVGANDGMLHGFDTDGNETFAFIPSAVFEKLHKLTARGYQGGAHQFYVDGSPVVADAFFGGAWHTVLIGSLRAGGKGLFALDVTDPANIKLLWEIGVDQEPDLGYSFPKPTVARLHNGKWAVVTGNGYSSLNDKAALLIIDLETGAITRKLEVTGRTGVPNGLSSPRLADNNSDGVADYAYAGDLQGNLWRFDLIAGKVNQDDPFSRANDGPAVASSFRVSFGGQPLYSAVDSAGAAQAITAAPSLVRHPTRKGYIVIFGTGKYFENADARADTSRAQTLYGIWDQQTKGEAAGSTPRLTRGNLQQQTLDLQADSTFASTARTIRIASQNPVNWLNNDGSTKQSGWYLDFMVNGTLKGEMLIEDMIAIGQVVLLQTITPNDDPCADGASNWTYGLDPYTGGRTSFTVFDLARQGVVDSKSDYSYNKQNVAVSGTEQKGLGGLTLSTNEQGNPEVCSSGECLTVNPGPNTRGRQNWRPIEGKN
Molecule B1 gave a Kd of 164 nM.

These data come from publication PMC3248442 (2011).
